Here are results for four molecules from PMC7021899, “N-terminal domain of the architectural protein CTCF has similar structural organization and ability to self-association in bilaterian organisms” (Scientific Reports, 2020).

In data set [1] the target is N-terminal domain of Drosophila virilis CTCF (1-144 aa), without Thioredoxin (Drosophila virilis). The data set is described as follows: SAXS; BM29 BioSAXS beamline (ESRF), 277 K, at least two concentrations; molecular mass from extrapolated I0 and protein standards.
The target of data set [2] is Thioredoxin-tagged N-terminal domain of Drosophila virilis CTCF (1-144 aa) (Drosophila virilis). The data set is described as follows: cross-linking; Thioredoxin-tagged NTDs, increasing concentrations of glutaraldehyde.
Data set [3] deals with the molecule itself. The description is as above.
Data set [4] deals with the molecule itself. The data set is described as follows: SAXS; BM29 BioSAXS beamline (ESRF), 277 K, at least two concentrations; molecular mass from extrapolated I0 and protein standards.

In general, stoichiometry N refers to the number of molecules, sites or subunits per partner or assembly.

As to “N-terminal domain of Drosophila virilis CTCF (1-144 aa), without Thioredoxin (domain or fragment)”, the stoichiometry N in data set [1] is 2. “Thioredoxin-tagged N-terminal domain of Drosophila virilis CTCF (1-144 aa) (domain or fragment)” had a stoichiometry N in data set [2] of 2.

B1: Thioredoxin-tagged N-terminal domain of Drosophila melanogaster CTCF (1-163 aa) (domain or fragment, UniProt Q9VS55 1-163, looked up)
chain: MPRRTKKDEDPEDLQTFLNNFHKEIEGNSDEKVVNTILEAISAEAIDLDENGAEAGGSKPMEEAEADLDHAEEAEEEEEDDEDKYFIDDEGNCYIKTTPKKQKELQKKLKQAAAKPGKATRSVVSTATNKSINLRPAKSTPKATTSKPPPEPKAISVRPARAA
notes: CTCF, Drosophila melanogaster, N-terminal domain, residues 1-163; also called dmCTCF NTD; Thioredoxin-tagged Drosophila CTCF NTD
As for B1, the “stoichiometry N” value in data set [3] was 2.

B2: N-terminal domain of Drosophila melanogaster CTCF (1-163 aa), without Thioredoxin (domain or fragment, UniProt Q9VS55 1-163, looked up)
chain: MPRRTKKDEDPEDLQTFLNNFHKEIEGNSDEKVVNTILEAISAEAIDLDENGAEAGGSKPMEEAEADLDHAEEAEEEEEDDEDKYFIDDEGNCYIKTTPKKQKELQKKLKQAAAKPGKATRSVVSTATNKSINLRPAKSTPKATTSKPPPEPKAISVRPARAA
notes: Modified pET32a(+) with TEV-cleavable Thioredoxin-6xHis-tag. 'Without Thioredoxin' is said for SEC; for SAXS and DLS the tag state is inferred from the printed monomer mass (18 kDa); also called dmCTCF NTD; dmCTCF-NTD
Turning to B2, the “stoichiometry N” value in data set [4] was 4.
